Measured values: US20170335290A1 (published 2017)

T1: survivin peptide on HLA-A*02:01 (human)
T1 peptide: ELTLGEFLKL

T2: survivin, heteroclitic variant 97M peptide on HLA-A*02:01 (human)
T2 peptide: LMLGEFLKL

T3: CD81 (CD81 antigen) peptide on HLA-A*02:01 (human)
T3 peptide: QCLLGTFFTC

T4: CRLS1 (cardiolipin synthase) peptide on HLA-A*02:01 (human)
T4 peptide: NIALGVFALA

T5: CD3d (CD3 delta) peptide on HLA-A*02:01 (human)
T5 peptide: LALGVFCFA

T6: INGR2 (Interferon gamma receptor 2) peptide on HLA-A*02:01 (human)
T6 peptide: LLLLGVFAAA

T7: CD3d (CD3 delta) peptide on HLA-A*02:01 (human)
T7 peptide: LLALGVFCFA

T8: CSF3R (Granulocyte colony stimulating factor receptor) peptide on HLA-A*02:01 (human)
T8 peptide: HIILGLFGLL

T9: EPB42 (Erythrocyte membrane protein band 4.2) peptide on HLA-A*02:01 (human)
T9 peptide: QLLLGQFTLL

T10: survivin ELT, alanine substitution at position 3 (residues not given, written out from the filing's … (human))
T10 peptide: ELALGEFLKL

T11: survivin ELT, alanine substitution at position 5 (residues not given, written out from the filing's … (human))
T11 peptide: ELTLAEFLKL


Columns and labels:
[1] = molecular target: T1, survivin peptide on HLA-A*02:01; assay: 51Cr release, clone #24 against ELT-pulsed T2 cells, E:T 10:1, peptide titration (avidity as defined in Table 1); T cell clone or line
[2] = molecular target: T2, survivin, heteroclitic variant 97M …; assay: 4-hour 51Cr release, 50% lysis at E:T 10:1, clone #24 against LML-pulsed T2 cells, peptide titration; T cell clone or line
[3] = molecular target: T3, CD81 (CD81 antigen) peptide on …; assay: cytokine release
[4] = molecular target: T4, CRLS1 (cardiolipin synthase) peptide on …; assay: cytokine release
[5] = molecular target: T5, CD3d (CD3 delta) peptide on HLA-A*02:01; assay: cytokine release
[6] = molecular target: T6, INGR2 (Interferon gamma receptor 2) …; assay: cytokine release
[7] = molecular target: T7, CD3d (CD3 delta) peptide on HLA-A*02:01; assay: cytokine release
[8] = molecular target: T8, CSF3R (Granulocyte colony stimulating …); assay: cytokine release
[9] = molecular target: T9, EPB42 (Erythrocyte membrane protein …); assay: cytokine release
[10] = molecular target: T2, survivin, heteroclitic variant 97M …; assay: 4-hour 51Cr release, 50% lysis at E:T 10:1, LML-pulsed T2 cells; value given for a published TCR (Leisegang et al. 2010); T cell clone or line
[11] = molecular target: T10, survivin ELT, alanine substitution at …; assay: cytokine release
[12] = molecular target: T11, survivin ELT, alanine substitution at …; assay: cytokine release
[13] = molecular target: T1, survivin peptide on HLA-A*02:01; assay: killing

Row | Binder | EC50 of peptide [1] [nM] | EC50 of peptide [2] [nM] | binding result [3] | binding result [4] | binding result [5] | binding result [6] | binding result [7] | binding result [8] | binding result [9] | EC50 of peptide [10] [nM] | binding result [11] | binding result [12] | binding result [13]
1 | s24-TCR (TCR, V domains shown) Valpha: GESVGLHLPTLSVQEGDNSIINCAYSNSASDYFIWYKQESGKGPQFIIDIRSNMDKRQGQRVTVLLNKTVKHLSLQIAATQPGDSAVYFCAETVTDSWGKLQFGAGTQVVVTP Vbeta: DAMVIQNPRYQVTQFGKPVTLSCSQTLNHNVMYWYQQKSSQAPKLLFHYYDKDFNNEADTPDNFQSRRPNTSFCFLDIRSPGLGDAAMYLCATSRGDSTAEPQHFGDGTRLSIL | 1000 | 50 | no recognition | no recognition | no recognition | no recognition | no recognition | no recognition | no recognition | – | – | – | –
2 | A66 (TCR) alpha TRAV13-1*02 TRAJ39*01 CDR3: CAARAGNMLTF beta TRBV30*01 TRBJ2-7*01 CDR3: CAWGTGLALYEQYF | – | – | – | – | – | – | – | – | – | 50 | – | – | –
3 | A72-TCR (TCR) Valpha: AQKITQTQPGMFVQEKEAVTLDCTYDTSDQSYGLFWYKQPSSGEMIFLIYQGSYDEQNATEGRYSLNFQKARKSANLVISASQLGDSAMYFCAMREGGGYNKLIFGAGTRLAVHP beta TRBV30*02 TRBJ1-1*01 CDR3: CAGQDLNTEAFF | – | – | recognises | no recognition | recognises | no recognition | no recognition | no recognition | no recognition | 0.05 | recognises | recognises | recognises
